B1: FLAG-HMK-IL-2Rβ chain mutant A-: FLAG-HMK-IL-2Rβ chain mutant lacking the acidic domain (protein)
chain: NCRNTGPWLKKVLKCNTPDPSKFFSQLSSEHGGDVQKWLSSPFPSSSFSPGGLAPEISPLEVLERDKVTQLLLQPLSGEDDAYCTFPSRDDLLLFSPSLLGGPSPPSTAPGGSGAGEERMPPSLQERVPRDWDPQPLGPPTPGVPDLVDFQPPPELVLREAGEEVPDAGPREGVSFPWSRPPGQGEFRALNARLPLNTDAYLSLQELQGQDPTHLV
modifications: left off: small tags and cut ends
notes: FLAG-HMK-IL-2Rβ chain mutant lacking the acidic domain
B2: FLAG-HMK-IL-2Rβ chain WT: bacterially produced fusion protein: FLAG epitope, HMK site and wild type IL-2Rβ chain cytoplasmic domain (protein)
chain: NCRNTGPWLKKVLKCNTPDPSKFFSQLSSEHGGDVQKWLSSPFPSSSFSPGGLAPEISPLEVLERDKVTQLLLQQDKVPEPASLSSNHSLTSCFTNQGYFFFHLPDALEIEACQVYFTYDPYSEEDPDEGVAGAPTGSSPQPLQPLSGEDDAYCTFPSRDDLLLFSPSLLGGPSPPSTAPGGSGAGEERMPPSLQERVPRDWDPQPLGPPTPGVPDLVDFQPPPELVLREAGEEVPDAGPREGVSFPWSRPPGQGEFRALNARLPLNTDAYLSLQELQGQDPTHLV
modifications: left off: small tags and cut ends
B3: mutant A^−CT^−: FLAG-HMK-IL-2Rβ chain mutant lacking both acidic domain and proline rich C-terminal (protein)
chain: NCRNTGPWLKKVLKCNTPDPSKFFSQLSSEHGGDVQKWLSSPFPSSSFSPGGLAPEISPLEVLERDKVTQLLL
modifications: left off: small tags and cut ends
notes: FLAG-HMK-IL-2Rβ chain mutant lacking both acidic domain and proline rich C-terminal
B4: FLAG-HMK-IL-2Rβ chain CT^+: FLAG-HMK-IL-2Rβ chain containing only the proline rich C-terminal (protein)
chain: QPLSGEDDAYCTFPSRDDLLLFSPSLLGGPSPPSTAPGGSGAGEERMPPSLQERVPRDWDPQPLGPPTPGVPDLVDFQPPPELVLREAGEEVPDAGPREGVSFPWSRPPGQGEFRALNARLPLNTDAYLSLQELQGQDPTHLV
modifications: left off: small tags and cut ends
notes: FLAG-HMK-IL-2Rβ chain containing only the proline rich C-terminal

Tests used:
[1] = test system: T-cell derived, active serine/threonine kinase; test: Protein kinase reaction on anti-FLAG beads coated with FLAG-HMK-IL-2Rβ chain proteins and exposed to T-cell lysates; assay type: biochemical, human; conditions: for level of (His)6-Mek-1 kinase phosphorylation: kinase defective (His)6-Mek-1 as substrate; for serine/threonine kinase activity, phosphorylation of p70 protein: no exogenously added substrate
Source text: FLAG-HMK-IL-2Rβ chain wild type and deletional mutants lacking certain defined domains of the IL-2Rβ chain (see Examples 1 and 2 and FIG. 1) were used to identify IL-2Rβ chain domain involved in binding T-cell derived, active serine/threonine kinase. Assay conditions were similar to those noted above. […] FLAG-HMK- fusion proteins coated beads were further used as affinity reagents to absorb proteins present in T-cell lysates. T-cell derived proteins bound to FLAG-MHK fusion proteins were then tested for serine/threonine kinase activity in the absence or presence of exogenous substrates: Histone H-1 or (His),-Mek-1. Products of kinase reactions were boiled in SDS-PAGE sample buffer followed by separation on SDS-PAGE, transfer onto Immobilon membrane and autoradiography. The following are the experiments that were carried out and their results: […]

(His)6-Raf-1 [2] = biological target: T1, (His)6-Raf-1 (Homo sapiens, UniProt P04049); test: Totally cell-free system: binding of bacterially produced (His)6-Raf-1 to FLAG-HMK-IL-2Rβ chain fusion proteins, anti-Raf-1 immunoblot; conditions: for amount of Raf-1 proteins bound, % of the positive control value (Raf-1 binding to FLAG-HMK-IL-2Rβ chain WT): estimated using Hewlett Packard ScanJet
T1 construct: made in house; host or cells: M15 bacteria (E. coli), pQE-30
Experimental: For the construction of the (His)6-Raf-1 expression plasmid, PCR was performed using the […] cDNA as template and oligonucleotide primers designed to facilitate cloning into the pQE-30 plasmid according to the manufacturer's protocol (QIAGEN, QIAexpressionist; Chatsworth, CA). (His)6-Raf-1 protein was produced in M15 bacteria by IPTG induction, and purified on Ni-NTA resin (QIAGEN). Affinity purification yielded a 72-74 kD protein which was recognized by anti Raf-1 antibody.
Accordingly, in this totally cell-free assay, FLAG-HMK-IL-2Rβ chain wild type and deletion mutants lacking at least one of several defined domains of the IL-2Rβ chain (see Example 1) were used to identify the IL-2Rβ chain domain involved in Raf-1 binding. Assay conditions were similar to those described in Example 1. Briefly, bacterially produced proteins: FLAG-HMK-IL-2Rβ chain wild type (WT), FLAG-HMK-IL-2Rβ chain containing only proline rich C-terminal (CT^+), FLAG-HMK-IL-2Rβ chain mutants lacking:serine rich region (S^−), acidic domain (A^−), acidic domain and proline rich C-terminal (A^−CT^−) were incubated with bacterially produced (His)6-Raf-1 (for all constructs see FIG. 1) followed by adsorption of FLAG-HMK-IL-2Rβ chain/Raf-1 complexes on anti-FLAG affinity beads. After extensive washing, IL-2Rβ chain/Raf-1 complexes were competitively eluted from anti-FLAG beads using buffer containing FLAG peptide. Eluted proteins were separated on SDS-PAGE, transferred onto Immobilon membrane and blotted with anti-Raf-1 antibody.

[3] = biological target: T2, Raf-1 proteins present in T-cell lysates (Homo sapiens, UniProt P04049); test: Cell-free system: binding of Raf-1 from T-cell lysates to FLAG-HMK-IL-2Rβ chain fusion proteins on anti-FLAG beads, anti-Raf-1 immunoblot; design: decrease of Raf-1 binding in comparison to WT control: unit not given here; conditions: T-cell lysates, anti-Raf-1 immunoblot; for binding of T-cell derived Raf-1 proteins: affinity beads coated with fusion protein
T2 construct: endogenous in cells; host or cells: PHA-stimulated human peripheral blood mononuclear cells (T cells), lysate
Source text: (ii) In order to study the interaction of IL-2Rβ chain with intracellular molecules, the FLAG-HMK-IL-2Rβ chain cytoplasmic domain fusion protein was purified from bacterial lysate using the M2 anti-FLAG monoclonal antibody in a standard affinity chromatography procedure. More specifically, bacterial lysate proteins were absorbed onto anti-FLAG (M2) affinity column (IBI-Kodak, New Haven, Conn., USA). After washing the column, the adsorbed proteins were eluted with either glycine buffer (pH 3) or FLAG peptide (10^−4M). Proteins in various fractions were analyzed for expected size (about 33 kDa) and purity after separation on SDS-PAGE and Commassie blue staining. The presence of a functional HMK recognition site was confirmed by phosphorylation of the purified 33 kDa IL-2Rβ chain fusion protein by HMK. More specifically, the eluted fusion proteins were tested for susceptibility to phosphorylation by incubation with the catalytic subunit of bovine heart muscle kinase (Sigma) (1 U/ul) in buffer containing 20 mM Tric-HCl, pH 7.5, 1 mM DTT, 100 mM NaCl, 10 mM MgCl2 and 1μCi [γ^32p] ATP for 30 min at 37° C. followed by SDS-PAGE and autoradiography. Purified FLAG-HMK-IL-2Rβ chain fusion proteins were used as an affinity reagent to probe for cytosolic proteins present in lysates of human T cells, metabolically labeled with [^35S ]-methionine, that bind to the IL-2Rβ chain. […] For [^35S]-methionine labeling, the cells were suspended at 4×10^7 cells/ml at 37° C. followed by addition of 0.5 mCi of [^35S]-methionine for 4 hours prior to lysis in Dounce homogenization buffer and application of the lysate to the affinity column. Several [^35S]-labeled proteins were retained by the FLAG-HMK-IL-2Rβ chain cytosolic domain fusion protein bound to the affinity column. One of these proteins was identified as Raf-1 by immunoblotting using a polyclonal antibody specific for the SP-63 peptide which corresponds to the C-terminal fragment of Raf-1. A molar excess of the competing SP-63 peptide blocked binding of the anti-SP-63 antibody to Raf-1.
Using the basic cell-free system described above, a number of FLAG-HMK-IL-2Rβ chain wild type FLAG-HMK-IL2Rβ chain deletion mutant proteins were then studied with respect to this specific interaction with Raf-i proteins present in T-cell lysates. These FLAG-HMK-IL2Rβ chain wild type (WT) and deletion mutants lacking certain defined domains of the IL-2Rβ chain were used to identify the IL-2Rβ chain domain involved in Raf-1 binding. Assay conditions were similar to those described above. […] In FIG. 1, there is shown, schematically, all of the constructs, i.e., FLAG-HMK-IL-2Rβ chain fusion proteins produced in transformed bacterial cells and used in this study. These FLAG-HMK- fusion proteins-coated beads were then used as affinity reagents to absorb Raf-1 proteins present in T-cell lysates. T-cell derived proteins bound to FLAG-HMK fusion proteins were then eluted using buffer containing FLAG peptide, separated on SDS-PAGE, transferred onto Immobilon membrane and blotted with anti-Raf-1 antibody.
The absorbed proteins were washed, eluted with FLAG peptide and probed for the presence of Raf-1 and 14-3-3 proteins on immunoblots. […] Washed cells (about 4×10^7) were lysed in Dounce homogenization buffer, centrifuged (15×10^3 xg for 15 min.) and supernatants applied onto washed anti-FLAG (M2) affinity column (IBI-Kodak) coated with bacterial lysates interacted with one of the FLAG-HMK fusion proteins. […]

(His)6-Raf-1 [4] = biological target: T1, (His)6-Raf-1; test: Kinase activity toward Mek-1 after interaction of FLAG-HMK-IL-2Rβ chain with bacterially produced (His)6-Raf-1; assay type: biochemical; conditions: interaction with (His)6-Raf-1; enzymatically inactive (His)6-Mek-1 substrate
Experimental: Bacterial lysates containing FLAG-HMK-IL-2Rβ chain wild type and (His)6-Raf-1 proteins were used (see Example 2) to test the hypothesis that the IL-2Rβ chain induces catalytic activity of Raf-1. Assay conditions were similar to those described above. Briefly, bacterially produced proteins: FLAG-HMK-IL-2Rβ chain wild type (WT) or FLAG-HMK (negative control) (for all constructs see FIG. 1) were incubated with bacterial lysates containing either (His)6-Raf-1 or (His)6 (negative control) followed by the absorption of protein complexes on anti-FLAG affinity beads. […] Products of kinase reactions were boiled in SDS-PAGE sample buffer followed by separation on SDS-PAGE, transfer onto Immobilon membrane and autoradiography.

Molecule | level of (His)6-Mek-1 kinase phosphorylation [1] | serine/threonine kinase activity, phosphorylation of p70 protein [1] | amount of Raf-1 proteins bound, % of the positive control value (Raf-1 binding to FLAG-HMK-IL-2Rβ chain WT) ((His)6-Raf-1 [2]) | decrease of Raf-1 binding in comparison to WT control [3] | induction of kinase activity toward Mek-1 kinase ((His)6-Raf-1 [4]) | binding of Raf-1 proteins ((His)6-Raf-1 [2]; anti-Raf-1 immunoblot) | binding of T-cell derived Raf-1 proteins [3]
B1 | Background levels | no phosphorylated band p70 | 17-50% | 50-80 |  |  | 
B2 | increase | bind T-cell derived protein(s) expressing serine/threonine kinase activity |  |  | did not result in the induction of kinase activity | bind Raf-1 proteins equally well | bind T-cell derived Raf-1 proteins equally well
B3 | Background levels | no phosphorylated band p70 | 0% |  |  |  | no binding
B4 | Background levels | no phosphorylated band p70 | 0%-10% |  |  |  | no binding
